This is an account of results in article PMC8221569.

The target in this test is human histones H3.1–H4 tetramer (human) (UniProt P68431). Kind of test: ITC; MicroCal PEAQ-ITC, 20°C, 20 mM Tris-HCl pH 7.5, 500 mM NaCl; 300 μM DNAJC9 HBD in the syringe, 30 μM (dimers) H3-H4 in the cell; one set of sites model; n = 3. For orientation: ITC needs no label: the signal is the heat of the interaction.

Sequence of DNAJC9 HBD (171–249), GST tag removed (Q8WXX5 171-249): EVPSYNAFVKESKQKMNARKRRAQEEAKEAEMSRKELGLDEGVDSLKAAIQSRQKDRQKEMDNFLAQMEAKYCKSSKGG

In the case of “DNAJC9 HBD (171–249), GST tag removed (from UniProt Q8WXX5 171-249) (domain or fragment)”, the Kd came to 39.5 nM.

For orientation: Kd means the free concentration of one partner at which half of the binding sites on the other are occupied at equilibrium, for simple one-to-one binding. Low readings indicate higher affinity, high ones lower affinity.
